Consider 26 molecules from patent publication US5811533, “High-affinity oligonucleotide ligands to vascular endothelial growth factor (VEGF)” (NeXstar Pharmaceuticals, Inc.).

In the data set the target is VEGF165 (recombinant human vascular endothelial growth factor, 165 aa form) (Homo sapiens, UniProt P15692-4 P15692-4:27-191). Nature of the data set: filter. As to conditions: tags: gift from N. Ferrara, Genentech; chain copies: 2 (dimer, stated).
VEGF165 (recombinant human vascular endothelial growth factor, 165 aa form), sequence (P15692 other isoform, or with tags, fused parts or gaps): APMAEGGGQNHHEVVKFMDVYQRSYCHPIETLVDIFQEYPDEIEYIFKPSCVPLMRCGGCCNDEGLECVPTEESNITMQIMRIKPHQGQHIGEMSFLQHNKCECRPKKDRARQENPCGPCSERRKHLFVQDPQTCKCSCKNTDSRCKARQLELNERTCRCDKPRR

B1: ssDNA b65 (ssDNA)
DNA: CTACCTACGATCTGACTAGCCGAGGTCCCCCACTGGATAGAGTTGTTGAAACAACGGTGCGCTTAGCTTACTCTCATGTAGTTCCT
As for B1, the Kd came out at 0.53 nM.
For AGGGCCACGTCTATTTAGACTAGAGTGCAGTGGTTC (ssDNA) [56t] the value was 0.2 nM; for AACACTTCCCCACTGGATAGAGGCCTTTCGCAGAGCCGGTGCTTA (ssDNA) [66t], 0.35 nM; for GTAGTTCCTTTAGGACTAGAGGGCCGCCTAC (ssDNA) [15t], 3 nM.

B2: ssDNA b80 (ssDNA)
DNA: CTACCTACGATCTGACTAGCCCGTCGCGTGACTATAACCACACGCAGACTAGAGTGCAGGGCTTAGCTTACTCTCATGTAGTTCCT
Turning to B2, the Kd turned out to be 8.1 nM.

B3: ssDNA b59 (ssDNA)
DNA: CTACCTACGATCTGACTAGCAACACGAGCATGTGGGGTCCCTTCCGAATGGGGGGTACAGGCTTAGCTTACTCTCATGTAGTTCCT
For B3, the Kd came out at 91 nM.

B4: ssDNA 15 (ssDNA)
DNA: ATCCGCCTGATTAGCGATACTACCGCTGTGTAGTTCCTTTAGGACTAGAGGGCCGCCTACACTTGAGCAAAATCACCTGCAGGGG
Turning to B4, the equilibrium dissociation constant (Kd) was 0.88 nM.

B5: ssDNA b66 (ssDNA)
DNA: CTACCTACGATCTGACTAGCAACACTTCCCCACTGGATAGAGGCCTTTCGCAGAGCCGGTGCTTAGCTTACTCTCATGTAGTTCCT
For B5, the dissociation constant (Kd) came out at 1.3 nM.

B6: ssDNA 1 (ssDNA)
DNA: ATCCGCCTGATTAGCGATACTTCTGCGAGAGACCTACTGGAACGTTTTGTGATATTCACAACTTGAGCAAAATCACCTGCAGGGG
Turning to B6, the dissociation constant (Kd) amounted to 12 nM.

B7: ssDNA b79 (ssDNA)
DNA: CTACCTACGATCTGACTAGCGAGGCATTAGGTCCGAATGGTAGTAATGCTGTCGTGCCTTGCTTAGCTTACTCTCATGTAGTTCCT
For B7, the Kd came out at 2 nM.

B8: ssDNA b56 (ssDNA)
DNA: CTACCTACGATCTGACTAGCGCAGGGCCACGTCTATTTAGACTAGAGTGCAGTGGTTCGCTTACTCTCATGTAGTTCCT
As to B8, the Kd was determined as 0.5 nM.
To GCAAGGGGTCCTGCCGAATGGGGGAATACGCTAGCCGAAA (ssDNA) [88t] belongs 19 nM.

B9: ssDNA b60 (ssDNA)
DNA: CTACCTACGATCTGACTAGCCCACCGCAGAGTGTTACACCCCATAGGAGAAGTCCGGATGGCTTAGCTTACTCTCATGTAGTTCCT
As for B9, the equilibrium dissociation constant (Kd) is 26 nM.

B10: ssDNA b95 (ssDNA)
DNA: CTACCTACGATCTGACTAGCCCACTGCATAGAGAACTGGATCGACGGTCCAAAGTTCGGTGCTTAGCTTACTCTCATGTAGTTCCT
Regarding B10, the Kd worked out at 0.9 nM.

B11: ssDNA b53 (ssDNA)
DNA: CTACCTACGATCTGACTAGCGCAAGGGCATCTCGGAATCGGTTAATCTGACTTGCAATACGCTTAGCTTACTCTCATGTAGTTCCT
As for B11, the Kd came out at 2.5 nM.

B12: ssDNA b98 (ssDNA)
DNA: CTACCTACGATCTGACTAGCGATCCACGAAGAAGCTTACTCTCATGTAGTTCCAGCTTACTCTCATGTAGTTCCT
With B12, the Kd was > 100 nM.

B13: ssDNA 6 (ssDNA)
DNA: ATCCGCCTGATTAGCGATACTATACACCCGGCGGGCCTACCGGATCGTTGATTTCTCTCCACTTGAGCAAAATCACCTGCAGGGG
Take B13: the Kd was 1 nM.

B14: ssDNA b85 (ssDNA)
DNA: CTACCTACGATCTGACTAGCGAGGAGGTGCGTTGTCCGAAGGGGTCGTTAGTCACCTCGTGCTTAGCTTACTCTCATGTAGTTCCT
Regarding B14, the dissociation constant (Kd) is 0.15 nM.
To GGAGGTGCGTTGTCCGAAGGGGTCGTTAGTCACCTC (ssDNA) [85t] belongs 0.3 nM.

B15: ssDNA 10 (ssDNA)
DNA: ATCCGCCTGATTAGCGATACTGTACCATCCACGGTTTACGTGGACAAGAGGGCCCTGGTACACTTGAGCAAAATCACCTGCAGGGG
In the case of B15, the dissociation constant (Kd) came out at 1 nM.

B16: ssDNA b88 (ssDNA)
DNA: CTACCTACGATCTGACTAGCGCAAGGGGTCCTGCCGAATGGGGGAATACGCTAGCCGAAAGCTTACTCTCATGTAGTTCCT
For the molecule B16, the Kd came to 34 nM.

B17: ssDNA 33 (ssDNA)
DNA: ATCCGCCTGATTAGCGATACTTCAAGCACTCCCGTCTTCCAGACAAGAGTGCAGGGCCTCTACTTGAGCAAAATCACCTGCAGGGG
As for B17, the Kd is 2 nM.

B18: ssDNA b99 (ssDNA)
DNA: CTACCTACGATCTGACTAGCCACGATAATCCTCCGAAAGCGTTGTCCGAATGGGTCGTTAGCTTAGCTTACTCTCATGTAGTTCCT
Regarding B18, the Kd came to 34 nM.
With CGAGGTCCCCCACTGGATAGAGTTGTTGAAACAACGGTGCGCTTA (ssDNA) [65t], the Kd turned out to be 0.32 nM.
For GTACCATCCACGGTTTACGTGGACAAGAGGGCCCTGGTAC (ssDNA) [10t] the value was 5 nM.

B19: ssDNA 23 (ssDNA)
DNA: ATCCGCCTGATTAGCGATACTGGGCATCTAACCCAGACCTACCGGAACGTTATCGCTTGTGACTTGAGCAAAATCACCTGCAGGGG
Take B19: the Kd amounted to 0.75 nM.
